# Experimental data taken from article doi:10.1101/2022.03.25.485857.
# Target: human α-thrombin (human)
# Experiment: enzyme inhibition
substance,measurement,value
chimadanin sulfated at both Tyr28 and Tyr31 (natural protein),Ki,0.1 nM
chimadanin with a single sTyr at Tyr28 (natural protein),Ki,0.6 nM
chimadanin with a single sTyr at Tyr31 (natural protein),Ki,1.5 nM
madanin-1 sulfated at both Tyr32 and Tyr35 (natural protein),Ki,0.5 nM
madanin-1 with a single sTyr at Tyr32 (natural protein),Ki,1.3 nM
madanin-1 with a single sTyr at Tyr35 (natural protein),Ki,6.1 nM
wildtype chimadanin (natural protein),Ki,12.9 nM
wildtype madanin-1 (natural protein),Ki,16 nM
